{
  "source": "the supplement of paper PMC6379048",
  "assay_in_all_cases": "Kd (EC50 corrected by depletion factor)",
  "key": {"MRPL11": {"biological_target": "MRPL11 (UniProt Q9Y3B7)", "summary_of_the_method": "(§1)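 Free RNA oligos (0 nM to 30 μM) competed for 1 h at 4°C in HEK293-FT lysate (2.5 mg protein/well) before a 30 min, 4°C pulldown with the same oligos on NHS-Sepharose beads. Bound proteins were quantified by label-free LC-MS/MS and normalised to the control. Kd was found by multiplying EC50, from a four-parameter log-logistic fit, by a protein-dependent depletion factor.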"}, "MRPL39": {"biological_target": "MRPL39 (UniProt Q9NYK5)", "summary_of_the_method": "as §1"}, "RPS25": {"biological_target": "RPS25 (UniProt P62851)", "summary_of_the_method": "as §1"}, "P4HA1": {"biological_target": "P4HA1 (UniProt P13674)", "sequence (P13674 whole entry)": "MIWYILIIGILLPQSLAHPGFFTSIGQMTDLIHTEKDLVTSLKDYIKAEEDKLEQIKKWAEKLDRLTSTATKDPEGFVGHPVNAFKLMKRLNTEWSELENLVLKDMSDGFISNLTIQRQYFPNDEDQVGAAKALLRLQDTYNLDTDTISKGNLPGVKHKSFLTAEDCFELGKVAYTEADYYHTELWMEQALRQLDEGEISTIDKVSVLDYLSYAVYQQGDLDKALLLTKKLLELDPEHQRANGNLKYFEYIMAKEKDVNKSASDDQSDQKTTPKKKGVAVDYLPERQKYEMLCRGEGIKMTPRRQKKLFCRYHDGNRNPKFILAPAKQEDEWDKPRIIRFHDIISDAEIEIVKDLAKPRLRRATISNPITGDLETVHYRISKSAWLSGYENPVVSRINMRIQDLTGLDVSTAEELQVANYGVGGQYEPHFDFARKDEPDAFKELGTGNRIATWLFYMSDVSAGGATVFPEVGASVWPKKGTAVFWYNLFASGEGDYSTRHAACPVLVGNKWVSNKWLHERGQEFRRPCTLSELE", "summary_of_the_method": "as §1"}, "PARP12": {"biological_target": "T1, PARP12 (UniProt Q9H0J9)", "T1 sequence": "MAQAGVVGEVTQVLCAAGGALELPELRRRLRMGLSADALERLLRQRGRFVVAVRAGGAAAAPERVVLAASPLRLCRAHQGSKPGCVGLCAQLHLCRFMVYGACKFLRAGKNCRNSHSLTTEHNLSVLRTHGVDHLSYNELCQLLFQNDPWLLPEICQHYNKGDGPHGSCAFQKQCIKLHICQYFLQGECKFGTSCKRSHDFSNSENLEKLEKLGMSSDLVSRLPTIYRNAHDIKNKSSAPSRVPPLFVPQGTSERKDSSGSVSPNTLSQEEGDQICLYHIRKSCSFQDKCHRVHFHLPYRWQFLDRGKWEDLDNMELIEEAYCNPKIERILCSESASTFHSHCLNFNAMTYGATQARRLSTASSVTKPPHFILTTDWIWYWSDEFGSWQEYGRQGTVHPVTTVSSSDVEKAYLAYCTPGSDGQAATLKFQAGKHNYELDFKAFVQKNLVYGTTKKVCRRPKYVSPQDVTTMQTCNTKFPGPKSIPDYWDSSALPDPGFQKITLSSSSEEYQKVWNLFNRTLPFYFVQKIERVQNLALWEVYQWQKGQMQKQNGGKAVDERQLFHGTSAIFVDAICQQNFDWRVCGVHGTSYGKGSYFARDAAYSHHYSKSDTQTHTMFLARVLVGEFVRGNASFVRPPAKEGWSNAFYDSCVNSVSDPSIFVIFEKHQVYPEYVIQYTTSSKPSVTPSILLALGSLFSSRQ", "summary_of_the_method": "as §1"}, "RBM47": {"biological_target": "T2, RBM47 (UniProt A0AV96)", "T2 sequence": "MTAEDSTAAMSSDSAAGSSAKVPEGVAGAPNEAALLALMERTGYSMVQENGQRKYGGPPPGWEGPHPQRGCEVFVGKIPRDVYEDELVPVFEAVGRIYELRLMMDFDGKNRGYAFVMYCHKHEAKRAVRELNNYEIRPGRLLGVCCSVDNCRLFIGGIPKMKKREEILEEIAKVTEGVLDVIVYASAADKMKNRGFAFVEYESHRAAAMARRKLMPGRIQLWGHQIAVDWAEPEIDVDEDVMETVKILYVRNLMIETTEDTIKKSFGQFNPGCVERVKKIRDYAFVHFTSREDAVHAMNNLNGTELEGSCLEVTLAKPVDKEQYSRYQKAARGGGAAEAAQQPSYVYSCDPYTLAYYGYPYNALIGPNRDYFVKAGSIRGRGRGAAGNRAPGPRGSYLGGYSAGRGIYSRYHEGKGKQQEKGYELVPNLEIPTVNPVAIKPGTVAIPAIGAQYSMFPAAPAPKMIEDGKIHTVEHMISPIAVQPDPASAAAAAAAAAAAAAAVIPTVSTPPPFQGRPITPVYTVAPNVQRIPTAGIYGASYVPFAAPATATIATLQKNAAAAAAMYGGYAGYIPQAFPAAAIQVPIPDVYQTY", "summary_of_the_method": "as §1"}, "TSNAX": {"biological_target": "T3, TSNAX (UniProt Q99598)", "T3 sequence": "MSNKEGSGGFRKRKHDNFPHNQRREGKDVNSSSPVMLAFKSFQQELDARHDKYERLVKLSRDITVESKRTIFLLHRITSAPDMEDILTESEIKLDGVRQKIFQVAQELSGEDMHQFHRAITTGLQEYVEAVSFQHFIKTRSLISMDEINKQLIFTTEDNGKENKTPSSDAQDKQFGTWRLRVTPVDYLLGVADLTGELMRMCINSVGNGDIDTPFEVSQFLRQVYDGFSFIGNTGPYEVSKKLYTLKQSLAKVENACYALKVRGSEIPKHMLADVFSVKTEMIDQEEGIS", "summary_of_the_method": "as §1"}, "ZGPAT": {"biological_target": "T4, ZGPAT (UniProt Q8N5A5)", "T4 sequence": "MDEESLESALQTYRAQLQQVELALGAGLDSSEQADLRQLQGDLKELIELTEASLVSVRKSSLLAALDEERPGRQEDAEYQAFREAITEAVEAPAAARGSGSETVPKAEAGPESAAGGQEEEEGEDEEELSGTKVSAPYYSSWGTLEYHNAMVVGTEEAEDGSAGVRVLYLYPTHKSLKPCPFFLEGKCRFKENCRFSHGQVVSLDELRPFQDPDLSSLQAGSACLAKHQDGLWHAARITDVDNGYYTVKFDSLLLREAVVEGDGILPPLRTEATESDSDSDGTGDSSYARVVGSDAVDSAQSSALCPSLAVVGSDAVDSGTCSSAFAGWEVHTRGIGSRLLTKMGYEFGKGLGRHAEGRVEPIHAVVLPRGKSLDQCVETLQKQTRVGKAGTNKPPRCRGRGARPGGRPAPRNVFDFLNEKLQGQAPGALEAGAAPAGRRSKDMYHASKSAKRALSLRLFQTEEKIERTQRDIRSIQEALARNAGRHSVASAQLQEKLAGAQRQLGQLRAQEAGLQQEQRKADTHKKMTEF", "summary_of_the_method": "as §1"}, "MRPS7": {"biological_target": "MRPS7 (UniProt Q9Y2R9)", "summary_of_the_method": "as §1"}},
  "data": [
    {"sequence": "CUGUCCU", "values": [
      {"measurement": "Kd", "setting": "MRPL11", "value": 0.0537, "unit": "µM"},
      {"measurement": "Kd", "setting": "MRPL39", "value": 0.101, "unit": "µM"},
      {"measurement": "Kd", "setting": "RPS25", "value": 0.0252, "unit": "µM"}
    ]},
    {"sequence": "AAUAAA", "values": [
      {"measurement": "Kd", "setting": "P4HA1", "value": 0.0238, "unit": "µM"},
      {"measurement": "Kd", "setting": "PARP12", "value": 5.4, "unit": "µM"},
      {"measurement": "Kd", "setting": "RBM47", "value": 0.417, "unit": "µM"},
      {"measurement": "Kd", "setting": "TSNAX", "value": 0.00596, "unit": "µM"},
      {"measurement": "Kd", "setting": "ZGPAT", "value": 4.39, "unit": "µM"}
    ]},
    {"sequence": "UAUUUAU", "values": [
      {"measurement": "Kd", "setting": "MRPS7", "value": 0.0294, "unit": "µM"}
    ]}
  ]
}
